According to the supplement of paper PMC10567573:

B1: FAM50A (parent)
chain: HIFPASRWEPYDPEKKWDKYTIR

Variants of: B1
Test: protein stability index of a GFP-peptide fusion (GPS, HEK-293T) (PSI 1-6); higher = more stable
Conditions: c terminus: native
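Also: lentivirally expressed fusions sorted by FACS into six bins by GFP to DsRed ratio, PSI derived from sequencing read proportions per bin multiplied by bin number.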

Variant	protein stability index
HIFPASRWEPYQPEKKWDKYTIR [D12Q]	2.19
HIFPASRWEPYDPEFKWDKYTIR [K15F]	2.2
HIFPAERWEPYDPEKKWDKYTIR [S6E]	3.04
HIFPASRWEPNDPEKKWDKYTIR [Y11N]	2.67
HIFPASRWEPYDPEKKRDKYTIR [W17R]	2.68
HIFPASRWEPYDPEKKWDTYTIR [K19T]	3.02
HIFPACRWEPYDPEKKWDKYTIR [S6C]	1.72
HIFPASYWEPYDPEKKWDKYTIR [R7Y]	1.65
HIFPASRWEPYDPEKKWDKYYIR [T21Y]	2.71
HIPPASRWEPYDPEKKWDKYTIR [F3P]	2.62
HIFPASRWEPYDPEKKWDKYNIR [T21N]	2.54
HIFPASRWEPYDPEKKWDKYRIR [T21R]	2.38
HIFPASRWEPYDPEKKWDKYTTR [I22T]	2.62
HIFPASRWEPYDPEKKDDKYTIR [W17D]	2.51
HIFPASRWEWYDPEKKWDKYTIR [P10W]	1.58
HIFPASRWEPYDPEKKWEKYTIR [D18E]	3.2
HIFPASRAEPYDPEKKWDKYTIR [W8A]	3.29
HIFPASRWEPYDPEKKWDKYTMR [I22M]	2.05
CIFPASRWEPYDPEKKWDKYTIR [H1C]	2.4
HIFPASRWNPYDPEKKWDKYTIR [E9N]	2.05
HIFPASRWKPYDPEKKWDKYTIR [E9K]	1.68
HIFPASRWEPYDPEKKIDKYTIR [W17I]	2.64
HIFPASRWCPYDPEKKWDKYTIR [E9C]	3.21
HIFPASRWEPYDPEPKWDKYTIR [K15P]	1.99
HIFPASRWEPYDPEKKADKYTIR [W17A]	2.45

Variant	protein stability index
HIFPASRWEPYDPEKKWIKYTIR [D18I]	2.48
HIMPASRWEPYDPEKKWDKYTIR [F3M]	1.74
HIFPASRWEPYDPEKKWDKCTIR [Y20C]	1.77
HIFPASRWEPYDPEKEWDKYTIR [K16E]	2.79
HIFRASRWEPYDPEKKWDKYTIR [P4R]	2.13
HIFPASRWEPYDPEKSWDKYTIR [K16S]	2.6
HIFPASRWEPYDPEMKWDKYTIR [K15M]	2.16
HIFPASRWEPYDPEKVWDKYTIR [K16V]	1.97
HIFPTSRWEPYDPEKKWDKYTIR [A5T]	2.06
HIFPASRWEPYDPLKKWDKYTIR [E14L]	2.1
HIFPASRWEPYDPEKKLDKYTIR [W17L]	2.37
HIFPASRWEPYDPEKKWDKYTIS [R23S]	2.1
HIFPASGWEPYDPEKKWDKYTIR [R7G]	2.5
HIFPASRWEPYDPEKPWDKYTIR [K16P]	2.48
HIFLASRWEPYDPEKKWDKYTIR [P4L]	2.56
HIFPASRCEPYDPEKKWDKYTIR [W8C]	3.11
HIFPASRWEIYDPEKKWDKYTIR [P10I]	1.24
HIFPASRWEPGDPEKKWDKYTIR [Y11G]	3.04
HIFPASRWEPYDPEKKWDQYTIR [K19Q]	2.63
HIFPASRWEPYDPEKKWDKYTIE [R23E]	2.04
HIFPASRWEPYDGEKKWDKYTIR [P13G]	2.03
HIKPASRWEPYDPEKKWDKYTIR [F3K]	2.47
HIFPAPRWEPYDPEKKWDKYTIR [S6P]	4.97
HIFPASRWEPYDPEKKWDIYTIR [K19I]	2.22
HKFPASRWEPYDPEKKWDKYTIR [I2K]	2.48

Variant	protein stability index
HIFPASRWEPYDPEKKWGKYTIR [D18G]	2.28
HIFPASTWEPYDPEKKWDKYTIR [R7T]	2.66
HIFPASRWEPWDPEKKWDKYTIR [Y11W]	2.11
HYFPASRWEPYDPEKKWDKYTIR [I2Y]	2.36
HIFPASRWEPYDPFKKWDKYTIR [E14F]	1.55
HIFPASRWEPYDPEKKWDKYTIV [R23V]	2.27
HIFPASRWEPYDPEKKWDKYTFR [I22F]	2.92
HINPASRWEPYDPEKKWDKYTIR [F3N]	3.25
HIFPASRWEPQDPEKKWDKYTIR [Y11Q]	2.28
HIFPASRWEPYDPEKKWDKYTIT [R23T]	1.87
HIFPASRWEDYDPEKKWDKYTIR [P10D]	2.23
HIFPMSRWEPYDPEKKWDKYTIR [A5M]	1.54
HIFPASRWEPYHPEKKWDKYTIR [D12H]	2.98
HIFPASRWEPYDPEKKWDKLTIR [Y20L]	2.26
HIFPASRWEPYDPEKKWDKYAIR [T21A]	2.08
HIIPASRWEPYDPEKKWDKYTIR [F3I]	2.57
HIFPASRWEGYDPEKKWDKYTIR [P10G]	2.45
HIFPASRWEPYDPEKKKDKYTIR [W17K]	2.57
HSFPASRWEPYDPEKKWDKYTIR [I2S]	2.83
HAFPASRWEPYDPEKKWDKYTIR [I2A]	2.71
HIFPASRWEPYDPEKKWDKYTIQ [R23Q]	2.12
HIFPASRWEPYIPEKKWDKYTIR [D12I]	1.79
HIFPASRWEPYDPEKKWDKYTIW [R23W]	1.72
HIFWASRWEPYDPEKKWDKYTIR [P4W]	1.64
HIFPASRWEPYDTEKKWDKYTIR [P13T]	2.3

Variant	protein stability index
HIFPASRWEPYDPMKKWDKYTIR [E14M]	2.38
HIFPASRWEPYDPEKKWDKYTYR [I22Y]	2.98
HIFPASRWEPYDPEKKWDKYMIR [T21M]	2.08
HIFPASRWFPYDPEKKWDKYTIR [E9F]	2.42
HIFPASRWEPYDPEKKWYKYTIR [D18Y]	2.39
QIFPASRWEPYDPEKKWDKYTIR [H1Q]	2.5
HIFPASRWEPLDPEKKWDKYTIR [Y11L]	2.27
HIFPQSRWEPYDPEKKWDKYTIR [A5Q]	3.48
HNFPASRWEPYDPEKKWDKYTIR [I2N]	3.19
HIFPASRYEPYDPEKKWDKYTIR [W8Y]	2.5
HIFPASRWEPYDPEKKNDKYTIR [W17N]	2.54
HIFPASRWEPYDPEKKWDKSTIR [Y20S]	2.74
HIFPASRWEPYTPEKKWDKYTIR [D12T]	2.11
HIFPASRWEPYDQEKKWDKYTIR [P13Q]	1.74
HIFPASRWEPYDPEKKWDEYTIR [K19E]	2.53
HIFPASRWEPYDPEKKWDMYTIR [K19M]	1.9
HIFPASRWEQYDPEKKWDKYTIR [P10Q]	2.12
HIFPASRWEPYDPEKKWDKMTIR [Y20M]	2.2
HIFPASRWEPYDPEKKWDKYWIR [T21W]	2.86
HIFPASRWEPYDPEKKWSKYTIR [D18S]	1.45
HISPASRWEPYDPEKKWDKYTIR [F3S]	2.79
IIFPASRWEPYDPEKKWDKYTIR [H1I]	1.58
